The record followed here is PMC2723119, “A new cold-adapted β-D-galactosidase from the Antarctic Arthrobacter sp. 32c – gene cloning, overexpression, purification and properties” (BMC Microbiology, 2009).

Substrate in this series: O=[N+]([O-])c1ccccc1O[C@@H]1O[C@H](CO)[C@H](O)[C@H](O)[C@H]1O
The experiment in a line: purified protein. In kind it is biochemical, Arthrobacter sp. Particulars: 50 °C (optimum; also at 10, 20, 30, 40, 55 °C), pH 6.5, 0.02 M potassium phosphate.

B1: Arthrobacter sp. 32c β-D-galactosidase (Arthrobacter sp.) (protein)
chain: MGKRFPSGWFSPRVHPPRRQRSPMTNQATPGTASVWNNIEGIGFGGDYNPEQWPVSVRLEDLELMQEAGVNFLSVGIFSWALLEPAEGQYDFGWLDDVMDNLHGIGVKVALATATAAPPAWLVRKHPEILPVTADGTTLGPGSRRHYTPSSAVYRKYAAGITRVLAERYKDHPALALWHVDNELGCHVSEFYGEEDAAAFRLWLERRYGTIDALNAAWGTAFWSQHYGSFEEILPPGVAPSTLNPGQQLDFQRFNSWALMDYYRSLVAVLREVTPAVPCTTNLMASSATKSMDYFSWAKDLDVIANDHYLVAADPERHIELAFSADLTRGIAGGDPWILMEHSTSAVNWQPRNQPKMPGEMLRNSLAHVARGADAVMFFQWRQSFAGSEKFHSAMVPHGGRDTRVWREVVDLGAALQLLAPVRGSRVESRAAIVFDYEAWWASEIDSKPSIDVRYLDLLRAFHRSLFLRGVSVDMVHPSASLDGYDLVLVCTLYSVTDEAAANIAAAAAGGATVLVSYFSGITDEKDHVRLGGYPGAFRELLGVRVEEFHPLLAGSQLKLSDGTVSSIWSEHVHLDGAEAFQTFTGYPLEGVPSLTRRAVGTGAAWYLATFPDRDGIESLVDRLLAESGVSPVAEADAGVELTRRRSADGGSFLFAINHTRAAASVRASGTDVLSGERFTGTVEAGSVAVIAED
notes: full length, recombinant, no tag apparent (own stop codon in reverse primer); starts MGKRFPS (from primer)
One may read the Km as the substrate concentration at which the rate is half of its maximum. The term kcat denotes the maximal rate divided by the concentration of active sites. One may read the kcat/Km as the turnover number divided by the Michaelis constant. For B1, the Michaelis-Menten constant (Km) is 2.62 ± 0.21 mM, the kcat was determined as 212.4 ± 1.67 s⁻¹ and the kcat/Km came to 81100 ± 7760 M⁻¹ s⁻¹.
